B1: Indole-3-acetaldehyde dehydrogenase AldA (PSPTO_0092) (enzyme)
chain: MTTLTRADWEQRAQNLKIEGRAFIQGEYTAAASGETFDCISPVDGRLLAKVASCDAADAQRAVESARSAFDSGAWSRLAPAKRKATMIRFAGLLEQNAEELALLETLDMGKPISDSLGVDIPGGARALSWSGEAIDKLYDEVAATPHDQLGLVTREPVGVVAAIVPWNFPLMMACWKLGPALSTGNSVVLKPSEKSPLTAIRIAQLAIEAGIPAGVLNVLPGYGHTVGKALALHMDVDTVVFTGSTKIAKQLMIYAGESNMKRVWLEAGGKSPNIVFADAPDLQAAADSAASAIAFNQGEVCTAGSRLLVERSIKDRFLPMVIEALGTWKPGNPLDPATNVGALVDTQQMNTVLSYIAAGHTDGARLVAGGKQILQETGGTYVEPTIFDGVNNAMRIAQEEIFGPVLSVLTFDTAEEAIQIANDTPYGLAAAVWTANLSKAHLTARALRAGSVWVNQYDGGDMTAPFGGFKQSGNGRDKSLHAFDKYTELKSTWIKL
notes: AldA (PSPTO_0092), aldehyde dehydrogenase of Pseudomonas syringae pv. tomato strain DC3000; estimated Mr 52.7 kDa without the tag; The full-length CDS is stated for the pET21a-0092 construct; pET28a-AldA was made with the same NdeI and XhoI sites; also called IAAld dehydrogenase; source: E. coli BL21 (DE3), pET28a-AldA, purified (Ni-NTA, Superdex-200 size exclusion); not shown: His6, N-terminal, …

How the values were obtained:
[1] = test system: NC(=O)c1ccc[n+]([C@@H]2O[C@H](COP(=O)(O)OP(=O)(O)OC[C@H]3O[C@@H](n4cnc5c(N)ncnc54)[C@H](OP(=O)(O)O)[C@@H]3O)[C@@H](O)[C@H]2O)c1; test: purified protein; conditions: 1.0 mM IAAld, 100 mM Tris-HCl pH 8.0, 100 mM KCl, 25 °C, NADP+ varied, varied: cofactor
[2] = test system: O=CCc1c[nH]c2ccccc12; test: purified protein; conditions: 1.0 mM NAD+, 100 mM Tris-HCl pH 8.0, 100 mM KCl, 25 °C, IAAld varied 0.05-2.5 mM
[3] = test system: NC(=O)c1ccc[n+]([C@@H]2O[C@H](COP(=O)(O)OP(=O)(O)OC[C@H]3O[C@@H](n4cnc5c(N)ncnc54)[C@H](O)[C@@H]3O)[C@@H](O)[C@H]2O)c1; test: purified protein; conditions: 1.0 mM IAAld, 100 mM Tris-HCl pH 8.0, 100 mM KCl, 25 °C, NAD+ varied, varied: cofactor
[4] = target: Aldehyde dehydrogenase AldB (PSPTO_2673) (Pseudomonas syringae pv. tomato strain DC3000); test: SEC; His-tagged protein on a Superdex-200 26/60 column in 25 mM Hepes (pH 7.5), 100 mM NaCl; column calibrated with molecular weight standards
[5] = target: T1, AldA (Pseudomonas syringae group genomosp. 3, UniProt Q88BC5); test: X-ray crystal structure of complex; format: binding; conditions: pH 8.5
T1 construct: gene PSPTO_0092; full-length, N-terminal hexahistidine tag (pET28a, NdeI/XhoI), E. coli BL21(DE3); tetramer; catalytic Cys302

[6] = target: Aldehyde dehydrogenase AldC (PSPTO_3644) (Pseudomonas syringae pv. tomato strain DC3000); test: SEC; His-tagged protein on a Superdex-200 26/60 column in 25 mM Hepes (pH 7.5), 100 mM NaCl; column calibrated with molecular weight standards
[7] = target: the molecule itself; test: as above

Molecule | Km [2] | kcat [2] | kcat/Km [2] | Km [3] | kcat [3] | kcat/Km [3] | also measured
AldA (Pseudomonas syringae pv. tomato str. DC3000) | 119 ± 37 µM | 3.9 ± 0.35 s⁻¹ | 32800 M⁻¹ s⁻¹ | 42 ± 8 µM | 3.23 ± 0.15 s⁻¹ | 77400 M⁻¹ s⁻¹ | Km [1]: 1,960 ± 182 µM; kcat [1]: 0.5 ± 0.0167 s⁻¹; kcat/Km [1]: 252 M⁻¹ s⁻¹
Aldehyde dehydrogenase AldB (PSPTO_2673) (enzyme) | – | – | – | – | – | – | stoichiometry N [4]: 4
O=C(O)Cc1c[nH]c2ccccc12 [IAA] | – | – | – | – | – | – | X-ray crystal structure of complex ([5]; 5 mM NAD+ and 5 mM IAA, dead-end ternary complex, 1.93 Å, substrate site near Cys302): AldA (5IUU); AldA•NAD^+ (5IUV); and AldA•NAD^+•IAA (5IUW)
Aldehyde dehydrogenase AldC (PSPTO_3644) (enzyme) | – | – | – | – | – | – | stoichiometry N [6]: 2
AldC (Pseudomonas syringae pv. tomato str. DC3000) | 1,280 ± 161 µM | 0.06 ± 0.00333 s⁻¹ | 46 M⁻¹ s⁻¹ | 445 ± 99 µM | 0.00667 ± 0.000167 s⁻¹ | 14 M⁻¹ s⁻¹ | –
AldB (Pseudomonas syringae pv. tomato str. DC3000) | 595 ± 39 µM | 0.145 ± 0.00333 s⁻¹ | 244 M⁻¹ s⁻¹ | 33.4 ± 9.2 µM | 0.035 ± 0.00167 s⁻¹ | 1040 M⁻¹ s⁻¹ | –
NC(=O)c1ccc[n+]([C@@H]2O[C@H](COP(=O)(O)OP(=O)(O)OC[C@H]3O[C@@H](n4cnc5c(N)ncnc54)[C@H](O)[C@@H]3O)[C@@H](O)[C@H]2O)c1 [NAD^+] | – | – | – | – | – | – | X-ray crystal structure of complex ([5]; 5 mM NAD+, cofactor binding site, also in the ternary complex 5IUW): AldA (5IUU); AldA•NAD^+ (5IUV); and AldA•NAD^+•IAA (5IUW)
B1 | – | – | – | – | – | – | stoichiometry N [7]: 4
